In test [1] the target is T1, chimeric Flt3/G-CSF receptor on transfected mouse Baf/3 cells (human) (UniProt P36888).
T1 sequence (looked up): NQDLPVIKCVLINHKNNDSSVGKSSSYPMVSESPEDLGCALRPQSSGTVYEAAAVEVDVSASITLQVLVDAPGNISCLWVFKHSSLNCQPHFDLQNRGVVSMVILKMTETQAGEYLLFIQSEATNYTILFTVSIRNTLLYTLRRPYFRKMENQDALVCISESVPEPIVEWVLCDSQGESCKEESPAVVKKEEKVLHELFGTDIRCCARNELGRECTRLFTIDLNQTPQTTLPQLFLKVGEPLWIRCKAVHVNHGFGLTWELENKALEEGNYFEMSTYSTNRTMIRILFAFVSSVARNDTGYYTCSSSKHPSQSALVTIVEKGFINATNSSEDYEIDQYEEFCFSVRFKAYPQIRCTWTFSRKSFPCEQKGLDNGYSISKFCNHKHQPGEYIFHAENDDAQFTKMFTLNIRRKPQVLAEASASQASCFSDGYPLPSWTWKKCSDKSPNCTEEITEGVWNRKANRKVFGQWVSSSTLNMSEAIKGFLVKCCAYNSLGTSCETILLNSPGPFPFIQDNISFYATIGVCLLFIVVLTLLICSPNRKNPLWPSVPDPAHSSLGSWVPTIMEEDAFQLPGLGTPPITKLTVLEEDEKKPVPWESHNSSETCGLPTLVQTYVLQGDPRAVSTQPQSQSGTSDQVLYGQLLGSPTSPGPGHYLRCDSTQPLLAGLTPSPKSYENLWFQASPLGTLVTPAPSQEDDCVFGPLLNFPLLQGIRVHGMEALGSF
As to the kind of experiment: cell-based or functional assay.

The target in test [2] is T2, human G-CSF receptor on transfected mouse BaF3 cells (mBaF3/hG-CSFR) (human) (UniProt Q99062).
T2 sequence (looked up): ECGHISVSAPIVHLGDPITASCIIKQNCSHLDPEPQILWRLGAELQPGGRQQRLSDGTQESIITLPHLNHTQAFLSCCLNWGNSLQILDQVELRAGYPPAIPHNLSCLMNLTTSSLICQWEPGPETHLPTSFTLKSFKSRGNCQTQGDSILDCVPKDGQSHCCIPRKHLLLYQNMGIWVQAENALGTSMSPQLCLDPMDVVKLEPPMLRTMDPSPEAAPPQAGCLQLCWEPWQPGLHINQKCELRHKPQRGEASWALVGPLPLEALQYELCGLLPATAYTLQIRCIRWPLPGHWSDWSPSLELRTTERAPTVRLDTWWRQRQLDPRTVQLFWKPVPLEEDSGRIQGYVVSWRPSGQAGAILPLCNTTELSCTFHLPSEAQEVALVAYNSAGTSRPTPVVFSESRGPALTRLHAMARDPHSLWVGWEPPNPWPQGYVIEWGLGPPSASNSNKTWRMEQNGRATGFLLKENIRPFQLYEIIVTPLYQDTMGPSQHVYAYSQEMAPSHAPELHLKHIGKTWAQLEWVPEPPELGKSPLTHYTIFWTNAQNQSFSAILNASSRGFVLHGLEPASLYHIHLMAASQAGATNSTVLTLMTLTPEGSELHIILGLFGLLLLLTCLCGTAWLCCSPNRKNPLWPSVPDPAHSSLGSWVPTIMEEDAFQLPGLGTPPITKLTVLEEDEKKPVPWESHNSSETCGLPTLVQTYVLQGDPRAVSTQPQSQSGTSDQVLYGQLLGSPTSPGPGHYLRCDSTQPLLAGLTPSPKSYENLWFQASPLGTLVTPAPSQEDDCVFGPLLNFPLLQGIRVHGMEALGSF
The test is described as follows: cell-based or functional assay.

Experimental findings from patent US20060052291A1 are described below.

Some results are limits rather than exact numbers.

The molecule “recombinant human G-CSF (from UniProt P09919 31-204) (ligand)” registered an Average EC50 (n = 12), BAF3/Flt cell proliferation ([3H]-thymidine) in test [1] above 200 nM. Further, in test [2], the Average EC50 (n = 9), BAF3/G-CSF cell proliferation ([3H]-thymidine) amounted to 0.025 nM and the Average Rel. Potency, BAF3/G-CSF cell proliferation came to 1.

B1: recombinant human flt3 ligand (ligand, UniProt P49771 27-185, looked up)
chain: TQDCSFQHSPISSDFAVKIRELSDYLLQDYPVTVASNLQDEELCGGLWRLVLAQRWMERLKTVAGSKMQGLLERVNTEIHFVTKCAFQPPPSCLRFVQTNISRLLQETSEQLVALKPWITRQNFSRCLELQCQPDSSTLPPPWSPRPLEATAPTAPQPP
With B1, in test [1], the Average EC50 (n = 12), BAF3/Flt cell proliferation ([3H]-thymidine) is 0.03 nM and the Average Rel. Potency, BAF3/Flt cell proliferation worked out at 1. In test [2], this molecule returned an Average EC50 (n = 9), BAF3/G-CSF cell proliferation ([3H]-thymidine) above 2 nM.
